Data as given in the supplement of paper PMC10567573.

B1: RHOBTB3 (parent)
chain: QLQSMPSRELASMNLDIVDLLKKA

Variants of: B1
Assay: protein stability index of a GFP-peptide fusion (GPS, HEK-293T) (PSI 1-6); higher = more stable
Details: c terminus: a fixed tail appended
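Further: lentivirally expressed fusions sorted by FACS into six bins by GFP to DsRed ratio, PSI derived from sequencing read proportions per bin multiplied by bin number.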

| Variant | protein stability index |
| --- | --- |
| QLQSMPSREFASMNLDIVDLLKKA | 3.41 |
| QLQSMPSREVASMNLDIVDLLKKA | 3.6 |
| QLQSMPSRESASMNLDIVDLLKKA | 4.49 |
| QLQSMPSREHASMNLDIVDLLKKA | 3.24 |
| QLQSMPSREKASMNLDIVDLLKKA | 3.02 |
| QLQSMPSRETASMNLDIVDLLKKA | 4.32 |
| QLQSMPSREPASMNLDIVDLLKKA | 3.83 |
| QLQSMPSRECASMNLDIVDLLKKA | 3.62 |
| QLQSMPSREEASMNLDIVDLLKKA | 3.97 |
| QLQSMPSREAASMNLDIVDLLKKA | 4.18 |
| QLQSMPSREQASMNLDIVDLLKKA | 3.63 |
| QLQSMPSREIASMNLDIVDLLKKA | 2.95 |
| QLQSMPSREDASMNLDIVDLLKKA | 4.09 |
| QLQSMPSREYASMNLDIVDLLKKA | 3.88 |
| QLQSMPSREMASMNLDIVDLLKKA | 3.58 |
| QLQSMPSRENASMNLDIVDLLKKA | 3.33 |
| QLQSMPSREWASMNLDIVDLLKKA | 3.25 |
| QLQSMPSREGASMNLDIVDLLKKA | 2.62 |
| QLQSMPSRERASMNLDIVDLLKKA | 3.71 |
| QLQSMPSRELAPMNLDIVDLLKKA | 4.11 |
| QLQSMPSRELAIMNLDIVDLLKKA | 3.02 |
| QLQSMPSRELAWMNLDIVDLLKKA | 2.5 |
| QLQSMPSRELAAMNLDIVDLLKKA | 3.28 |
| QLQSMPSRELATMNLDIVDLLKKA | 3.75 |

| Variant | protein stability index |
| --- | --- |
| QLQSMPSRELAGMNLDIVDLLKKA | 3.9 |
| QLQSMPSRELAYMNLDIVDLLKKA | 2.95 |
| QLQSMPSRELAVMNLDIVDLLKKA | 3.95 |
| QLQSMPSRELAKMNLDIVDLLKKA | 3.63 |
| QLQSMPSRELACMNLDIVDLLKKA | 3.33 |
| QLQSMPSRELALMNLDIVDLLKKA | 3.54 |
| QLQSMPSRELAHMNLDIVDLLKKA | 3.06 |
| QLQSMPSRELAMMNLDIVDLLKKA | 3.24 |
| QLQSMPSRELANMNLDIVDLLKKA | 3.06 |
| QLQSMPSRELAQMNLDIVDLLKKA | 4.1 |
| QLQSMPSRELADMNLDIVDLLKKA | 3.68 |
| QLQSMPSRELARMNLDIVDLLKKA | 2.13 |
| QLQSMPSRELAFMNLDIVDLLKKA | 3.22 |
| QLQSMPSRELAEMNLDIVDLLKKA | 4.26 |
| QLQSMPSRELYSMNLDIVDLLKKA | 2.86 |
| QLQSMPSRELMSMNLDIVDLLKKA | 3.34 |
| QLQSMPSRELRSMNLDIVDLLKKA | 2.81 |
| QLQSMPSRELQSMNLDIVDLLKKA | 3.37 |
| QLQSMPSRELESMNLDIVDLLKKA | 3.73 |
| QLQSMPSRELLSMNLDIVDLLKKA | 3.11 |
| QLQSMPSRELSSMNLDIVDLLKKA | 3.54 |
| QLQSMPSRELISMNLDIVDLLKKA | 2.87 |
| QLQSMPSRELDSMNLDIVDLLKKA | 3.75 |
| QLQSMPSRELWSMNLDIVDLLKKA | 2.79 |

| Variant | protein stability index |
| --- | --- |
| QLQSMPSRELCSMNLDIVDLLKKA | 3.17 |
| QLQSMPSRELFSMNLDIVDLLKKA | 2.76 |
| QLQSMPSRELNSMNLDIVDLLKKA | 3.29 |
| QLQSMPSRELVSMNLDIVDLLKKA | 3.27 |
| QLQSMPSRELKSMNLDIVDLLKKA | 2.72 |
| QLQSMPSRELHSMNLDIVDLLKKA | 3.21 |
| QLQSMPSRELTSMNLDIVDLLKKA | 3.28 |
| QLQSMPSRELPSMNLDIVDLLKKA | 3.27 |
| QLQSMPSRELGSMNLDIVDLLKKA | 3.19 |
| QLQSMPSRELASMNCDIVDLLKKA | 4.27 |
| QLQSMPSRELASMNEDIVDLLKKA | 3.94 |
| QLQSMPSRELASMNGDIVDLLKKA | 3.99 |
| QLQSMPSRELASMNFDIVDLLKKA | 3.44 |
| QLQSMPSRELASMNSDIVDLLKKA | 3.79 |
| QLQSMPSRELASMNDDIVDLLKKA | 3.23 |
| QLQSMPSRELASMNRDIVDLLKKA | 3.58 |
| QLQSMPSRELASMNTDIVDLLKKA | 4.17 |
| QLQSMPSRELASMNMDIVDLLKKA | 3.86 |
| QLQSMPSRELASMNIDIVDLLKKA | 3.66 |
| QLQSMPSRELASMNHDIVDLLKKA | 3.98 |
| QLQSMPSRELASMNWDIVDLLKKA | 2.88 |
| QLQSMPSRELASMNQDIVDLLKKA | 3.72 |
| QLQSMPSRELASMNPDIVDLLKKA | 4.48 |
| QLQSMPSRELASMNADIVDLLKKA | 3.67 |

| Variant | protein stability index |
| --- | --- |
| QLQSMPSRELASMNYDIVDLLKKA | 3.87 |
| QLQSMPSRELASMNVDIVDLLKKA | 3.35 |
| QLQSMPSRELASMNKDIVDLLKKA | 4.45 |
| QLQSMPSRELASMNNDIVDLLKKA | 3.45 |
| QLQSMPSRHLASMNLDIVDLLKKA | 2.99 |
| QLQSMPSRALASMNLDIVDLLKKA | 3.1 |
| QLQSMPSRYLASMNLDIVDLLKKA | 3.14 |
| QLQSMPSRQLASMNLDIVDLLKKA | 2.7 |
| QLQSMPSRCLASMNLDIVDLLKKA | 2.7 |
| QLQSMPSRSLASMNLDIVDLLKKA | 3.6 |
| QLQSMPSRILASMNLDIVDLLKKA | 2.44 |
| QLQSMPSRKLASMNLDIVDLLKKA | 2.27 |
| QLQSMPSRPLASMNLDIVDLLKKA | 2.78 |
| QLQSMPSRMLASMNLDIVDLLKKA | 2.31 |
| QLQSMPSRNLASMNLDIVDLLKKA | 3.4 |
| QLQSMPSRGLASMNLDIVDLLKKA | 2.9 |
| QLQSMPSRVLASMNLDIVDLLKKA | 3.04 |
| QLQSMPSRFLASMNLDIVDLLKKA | 2.92 |
| QLQSMPSRTLASMNLDIVDLLKKA | 3.61 |
| QLQSMPSRDLASMNLDIVDLLKKA | 2.63 |
| QLQSMPSRRLASMNLDIVDLLKKA | 2.15 |
| QLQSMPSRLLASMNLDIVDLLKKA | 2.7 |
